Target: Wnt proteins
Test: cell-based or functional assay

Mouse sFRP3 (secreted Frizzled-related protein 3), Myc epitope tagged (from UniProt P97401 33-323)
percent of injection sites with correct anterior turns of post-crossing commissural axons (open-book explant, collagen gel): 25%

Mouse sFRP2 (secreted Frizzled-related protein 2), Myc epitope tagged (from UniProt P97299 25-295)
percent of injection sites with correct anterior turns of post-crossing commissural axons (open-book explant, collagen gel): 25%

Mouse sFRP1 (secreted Frizzled-related protein 1) (from UniProt Q8C4U3 32-314)
percent of injection sites with correct anterior turns of post-crossing commissural axons (open-book explant, collagen gel): 11%

Source: patent US20050049195A1
